Measured values taken from patent publication US20140112926A1.

What was measured:
[1] = molecular target: GST-tagged version of human FcγRIIIA (human) (UniProt P08637); test: AlphaLISA vs biotin-huIgG, supernatant, round 2
[2] = molecular target: GST-tagged version of human FcγRIIIA (human) (UniProt P08637); test: AlphaLISA vs biotin-huIgG, supernatant, round 1
[3] = molecular target: GST-tagged version of human FcγRIIIA (human) (UniProt P08637); test: AlphaLISA vs biotin-huIgG, supernatant, round 3

GST-tagged version of human FcγRIIIA (human), sequence (P08637 17-208 limits assumed): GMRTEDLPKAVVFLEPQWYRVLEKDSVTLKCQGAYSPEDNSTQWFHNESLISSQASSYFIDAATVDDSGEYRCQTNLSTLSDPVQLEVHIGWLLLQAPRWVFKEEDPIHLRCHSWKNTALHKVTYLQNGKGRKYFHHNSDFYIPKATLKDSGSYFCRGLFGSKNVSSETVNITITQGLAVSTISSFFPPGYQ

| Substance | % inhibition [1] | Alpha signal [1] | % inhibition [2] | Alpha signal [2] | % inhibition [3] | Alpha signal [3] |
| --- | --- | --- | --- | --- | --- | --- |
| scFv-Fc/Fc, K334A in scFv-Fc (Fc fusion) | 31.9% | 54800 | 32% | 51700 | 28.2% | 56500 |
| scFv-Fc/Fc, T307P in dummy Fc (Fc fusion) | 75.1% | 20000 | 75% | 19000 | 82.1% | 14100 |
| scFv-Fc/Fc, V302Q in dummy Fc (Fc fusion) | 55.3% | 35900 | 47% | 40300 | 57.4% | 33400 |
| scFv-Fc/Fc, F243L in dummy Fc (Fc fusion) | 77.4% | 18200 | 72.9% | 20600 | 76.1% | 18800 |
| scFv-Fc/Fc, F243I in scFv-Fc (Fc fusion) | 73.1% | 21700 | 60.6% | 30000 | 72.8% | 21400 |
| scFv-Fc/Fc, R255S in dummy Fc (Fc fusion) | 38% | 49800 | 21.9% | 59300 | 22.3% | 61000 |
| scFv-Fc/Fc, K290G in dummy Fc (Fc fusion) | 75% | 20100 | 73% | 20600 | 51% | – |
| scFv-Fc/Fc, T256Q in scFv-Fc (from UniProt P0DOX5 218-449; P0DOX5 218-449) (Fc fusion) | 76.3% | 19100 | 65.1% | 26500 | 73.5% | 20800 |
| scFv-Fc/Fc, G236Y in scFv-Fc (Fc fusion) | 23.2% | 61700 | 15% | 64600 | 20.9% | 62200 |
| scFv-Fc/Fc, E294L in dummy Fc (Fc fusion) | – | 35400 | – | 30100 | – | 32200 |
| scFv-Fc/Fc, L234Y in scFv-Fc (Fc fusion) | 42.9% | 45900 | 27.5% | 55100 | 35.7% | 50500 |
| scFv-Fc/Fc, K334V + D413N in dummy Fc (Fc fusion) | 73.4% | 21400 | 73.4% | 20200 | 67.6% | 25400 |
| scFv-Fc/Fc, K288I in scFv-Fc (from UniProt P0DOX5 218-449; P0DOX5 218-449) (Fc fusion) | – | 57500 | 25.8% | 56400 | – | 57300 |
| scFv-Fc/Fc, K290Y in scFv-Fc (Fc fusion) | 90.2% | 7890 | 87.9% | 9170 | 87% | 10200 |
| scFv-Fc/Fc, Y296L in scFv-Fc (Fc fusion) | 24.7% | 60600 | 23.1% | 58500 | 18.2% | 64300 |
| scFv-Fc/Fc, I332E in dummy Fc (Fc fusion) | 87.7% | 9880 | 85.8% | 10800 | 85.3% | 11500 |
| scFv-Fc/Fc, M252D in dummy Fc (Fc fusion) | 27.8% | 58100 | 20.4% | 60500 | 23.3% | 60300 |
| scFv-Fc/Fc, A339T in dummy Fc (Fc fusion) | 27.3% | 58400 | 25.8% | 56400 | 36.6% | 49800 |
